Results as given in paper PMC8498651 (Cell Reports, 2021).

Experiments:
[1] = molecular target: Recombinant SARS-CoV-2 RBD protein (E. coli) (SARS-CoV-2, UniProt P0DTC2); assay: BLI
SARS-CoV RBD = SARS-CoV RBD (SARS-CoV, strain , UniProt P59594); assay: BLI

Row | Binder | Kd [1] | half-life of dissociation [1] | binding result (SARS-CoV RBD)
1 | 2H04, anti-SARS-CoV-2 mAb (IgG) (antibody, V domains shown) VH: EVQLQQSGAELVKPGASVKMSCKASGYTFTSYWITWVKQRPGQGLEWIGDIYPGSGSTKYNEKFRSEATLTVDTSSTTAYMQLSSLTSEDSAVYYCARWDFYGSRTFDYWGQGTTLTVSS VL: DIVLTQSPAILSVSPGERVSFSCRASQNIGTIIHWYQQRTNGSPRLLIKYASESVSGIPSRFSGSGSGTDFTLSINSVESEDIADYYCQQSSSWPLTFGAGTKLEL | 40.1 nM | 1.27 min | –
2 | 2B04, anti-SARS-CoV-2 mAb (IgG) (antibody, V domains shown) VH: QVQLKQSGPGLVAPSQSLSITCTVSGFSLINYAISWVRQPPGKGLEWLGVIWTGGGTNYNSALKSRLSISKDNSKSQVFLKMNSLQTDDTARYYCARKDYYGRYYGMDYWGQGTSVTVS VL: QAVVTQESALTTSPGETVTLTCRSSTGAVTTSNYANWVQEKPDHLFTGLIGGTNNRAPGVPARFSGSLIGDKAALTITGAQTEDEAIYFCALWYNNHWVFGGGTKLTVL | 1.05 nM | 23.7 min | no binding
